The results in this text go back to article PMC3600295.

For data set [1], the target named is T1, human alpha-thrombin (Homo sapiens, UniProt P00734;P00734 315-363;364-622). Kind of data set: potentiometric aptasensor; PANI transducer; LOD 71 nM, 2.97 mV/decade (not a Kd); PBS listed as reagent; salt, pH and temperature of the potentiometric assay not given in the material.
For data set [2], the target named is T1, human alpha-thrombin. Kind of data set: potentiometric aptasensor; SWCNT transducer; LOD 80 nM, 8.03 mV/decade (not a Kd); PBS listed as reagent; salt, pH and temperature of the potentiometric assay not given in the material.

B1: TBA 15-mer, 5'-SH (PANI sensor) (structured_DNA)
DNA: GGTTGGTGTGGTTGG
modifications: 5'-SH, coupled to polyaniline
As for B1, the binding result in the data set with human alpha-thrombin [1] is “binds”.

B2: TBA 15-mer, 5'-NH2 (SWCNT sensor) (structured_DNA)
DNA: GGTTGGTGTGGTTGG
modifications: 5'-NH2, coupled to SWCNT carboxyl groups
With B2, the binding result with human alpha-thrombin [2] was “binds”.
